Test results: the supplement of paper PMC9732359
± gives the uncertainty stated by the source.

Assay: protein stability index of a GFP-peptide fusion (yeast GPS) (PSI 1-4); higher = more stable; sorted into four equal gates, so the index is relative within each strain
How it was run: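 Sequencing reads from sorted gates were used to score each peptide. The library consisted of tiled 17-residue yeast protein peptides fused downstream of GFP on a Cherry-expressing plasmid, pooled and carried in yeast. Mid-log cultures in leucine-free medium were split into four equal gates by GFP/Cherry ratio, and each gate's plasmids were PCR-amplified and Illumina-sequenced. The protein stability index adds up, over all gates, the read frequency multiplied by the gate number.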

Sequence | protein stability index (doa10∆) | protein stability index (pdr5∆) | protein stability index (san1∆) | protein stability index (ubr1∆)
VDINRLKKGEVSLGTSI [PRE3] | 2.21 ± 0.098 | 1.55 ± 0.063 | 2.11 ± 0.081 | 1.33 ± 0.06
VEDALDKDSTKEVASLP [FAS2] | 3.15 ± 0.13 |  | 3.12 ± 0.12 | 
YDNIDIQRGRILPTDGS [RPB7] | 3.05 ± 0.28 | 3.06 ± 0.18 |  | 2.94 ± 0.24
SKKGKPTVNKKPKNKKK [SRP72] | 2.73 ± 0.15 | 2.68 ± 0.11 | 2.45 ± 0.12 | 2.9 ± 0.098
EFTENELNVDSMDVDDK [ITC1] | 3.18 ± 0.16 | 3.24 ± 0.19 | 3.31 ± 0.11 | 3.25 ± 0.093
SPSTSANVPSTATTGKR [RPN4] | 2.16 ± 0.18 | 2.2 ± 0.1 | 2.62 ± 0.11 | 2.65 ± 0.096
MQIFVKTLTGKTITLEV [RPS31] | 2.48 ± 0.17 | 1.76 ± 0.097 | 2.61 ± 0.13 | 3.13 ± 0.13
IAAMVAQKCGWTIPHKK [SIR2] | 2.33 ± 0.096 | 2.41 ± 0.2 | 2.06 ± 0.15 | 2.35 ± 0.051
ELKKYMDKKILLNINGS [SMX2] | 1.88 ± 0.059 | 2.25 ± 0.062 | 2 ± 0.094 | 2 ± 0.045
KRDAKAAGSYYVEAQHK [RPL7A] | 3.21 ± 0.086 | 3.19 ± 0.046 | 3.22 ± 0.042 | 2.91 ± 0.054
VSNNEANTPSIPTNPVD [SWI3] | 3.14 ± 0.074 | 3.2 ± 0.09 | 2.97 ± 0.082 | 3.08 ± 0.065
VAARMFHILLKLILEWV [ECM29] | 1.42 ± 0.17 | 1.64 ± 0.12 | 1.91 ± 0.12 | 2.1 ± 0.094
KKMDDYIHRIGRTGRAA [PRP28] | 3.17 ± 0.1 | 3.28 ± 0.092 | 3.27 ± 0.045 | 3.35 ± 0.07
YTEFIDSFIEKIIPKDI [ITC1] | 2.79 ± 0.12 | 2.11 ± 0.1 | 1.76 ± 0.12 | 1.81 ± 0.053
QKNMNDLLRSQLTSLEK [YIL149C/MLP2] | 2.89 ± 0.073 | 2.17 ± 0.056 | 1.96 ± 0.075 | 2.35 ± 0.05
EEDISDLWNNFGNIMDN [RRP6] | 3.13 ± 0.078 | 2.98 ± 0.071 | 3.02 ± 0.052 | 3.02 ± 0.1
KKDQSVLKSHSNDFEEG [YMR129W/POM152] | 2.59 ± 0.087 | 2.99 ± 0.12 | 3.07 ± 0.071 | 2.95 ± 0.073
SNDSQSHFDYNTLEFII [YCG1] | 2.52 ± 0.2 | 2.78 ± 0.19 |  | 2.89 ± 0.14
PLGILHIPICVTFSFFN [RRP45] | 1.29 ± 0.05 | 1.26 ± 0.06 | 1.2 ± 0.096 | 1.12 ± 0.045
TDSRTGQSTILVGSEIY [CDC53] | 2.77 ± 0.056 | 2.64 ± 0.066 | 2.94 ± 0.051 | 2.87 ± 0.065
VEYLDVNEENDSYIALY [RET1] | 2.97 ± 0.14 | 3.08 ± 0.19 | 3.2 ± 0.08 | 3.2 ± 0.12
VCGIIVKQEDMPFNDQG [RET1] | 3.06 ± 0.16 | 2.87 ± 0.24 | 2.46 ± 0.26 | 2.49 ± 0.21
SEDSMNVQLRDVIATEP [SMD3] | 2.94 ± 0.1 | 3.36 ± 0.098 | 3.09 ± 0.065 | 3.23 ± 0.039
GLIVNPVKVSGTIKKIE [POP5] | 2.41 ± 0.16 | 2.97 ± 0.19 | 2.95 ± 0.12 | 2.26 ± 0.15
DTNAPVAATITSSQKEP [SRB8] | 2.35 ± 0.14 | 2.79 ± 0.13 | 3.04 ± 0.086 | 2.96 ± 0.11
ESQEKYMEPFDLDLNEQ [NSL1] | 3.29 ± 0.068 | 3.21 ± 0.057 | 3.35 ± 0.041 | 3.3 ± 0.045
SKRLPLRFPEHTSSGSV [BRR2] | 2.9 ± 0.096 | 2.97 ± 0.083 | 2.74 ± 0.14 | 2.34 ± 0.065
AVYGPRSIRGSFTSQGT [MTR3] | 3.16 ± 0.12 | 3.2 ± 0.086 | 3.08 ± 0.098 | 3.02 ± 0.058

Sequence | protein stability index (doa10∆) | protein stability index (pdr5∆) | protein stability index (san1∆) | protein stability index (ubr1∆)
NSSTSSTSNTPSPPNVI [YDL088C/ASM4] | 2.88 ± 0.05 | 2.88 ± 0.045 | 2.7 ± 0.052 | 3.06 ± 0.043
AKGCEVVVSGKLRAARA [RPS3] | 3.15 ± 0.14 | 3.24 ± 0.22 | 3.42 ± 0.14 | 3.25 ± 0.28
GEFSGKNFSPTKRVEKP [RRP6] | 2.37 ± 0.089 | 2.47 ± 0.094 | 2.54 ± 0.078 | 3.22 ± 0.059
RQYVGQLAPSSVDPQSS [DIS3] | 2.69 ± 0.05 | 3.06 ± 0.059 | 2.92 ± 0.063 | 2.62 ± 0.055
HIGHSALKGPVRDKLDE [DPB4] | 3.29 ± 0.085 | 3.18 ± 0.068 | 3.11 ± 0.084 | 3.2 ± 0.083
QAQAQAHAQHQPSQQPQ [GAL11] | 2.967 ± 0.022 | 2.972 ± 0.019 | 2.974 ± 0.022 | 3.028 ± 0.018
SVTETESISQTPISNEQ [SRP68] | 2.89 ± 0.099 | 3.01 ± 0.078 | 2.82 ± 0.063 | 2.96 ± 0.082
MFDAFVSFYFEDGTIES [SIN4] | 2.33 ± 0.078 | 2.76 ± 0.062 | 2.52 ± 0.059 | 3.07 ± 0.062
KWDDLNEQLTLLSKKHG [RPN5] | 2.67 ± 0.099 | 2.92 ± 0.083 | 2.58 ± 0.063 | 2.94 ± 0.055
VILAKNENETRDKVCKQ [PGD1] | 3.45 ± 0.18 | 2.96 ± 0.12 |  | 
TNTHPNFLSKIRNINVQ [SNF2] | 1.44 ± 0.049 | 1.68 ± 0.063 | 1.49 ± 0.09 | 1.34 ± 0.031
KKCIDFFEMLISKSLTF [RRI2] | 2.13 ± 0.055 | 2.13 ± 0.041 | 1.96 ± 0.061 | 2.27 ± 0.038
GMGIGFIDHHAAIRQPT [POP1] |  | 2.94 ± 0.086 |  | 2.49 ± 0.15
ETNGYDPFSIYGFSNKE [SNF5] | 1.64 ± 0.047 | 1.51 ± 0.075 | 2.12 ± 0.083 | 2.03 ± 0.063
INDIRDDDIEKQEQEEK [YCG1] | 2.96 ± 0.082 | 2.79 ± 0.07 | 2.94 ± 0.055 | 3.12 ± 0.055
ISSSAIPYSRNAPAWFK [RPS13] | 2.33 ± 0.09 | 2.9 ± 0.071 | 2.21 ± 0.086 | 2.37 ± 0.063
ELESITESITHDSSNGL [NUT1] | 2.95 ± 0.1 | 3.27 ± 0.074 | 3.25 ± 0.051 | 3.2 ± 0.067
MGNTKVHCRISCQIAQP [RRP45] | 1.64 ± 0.059 | 2.04 ± 0.079 | 1.56 ± 0.1 | 1.91 ± 0.056
LPTRGTLESLENLVVAD [COR1] | 2.83 ± 0.059 | 3.04 ± 0.053 | 2.84 ± 0.057 | 2.89 ± 0.042
ITHNTNITDNLFQELSK [GRR1] | 3.27 ± 0.091 | 3.55 ± 0.13 | 3.62 ± 0.22 | 3.18 ± 0.16
NSSNYFGELQFAFLNAM [AAR2] | 2.86 ± 0.088 | 2.94 ± 0.071 | 2.69 ± 0.071 | 2.89 ± 0.054
NVRDDMKPSDNISTNTN [SSN2] | 3.1 ± 0.045 | 2.94 ± 0.049 | 2.88 ± 0.051 | 3.04 ± 0.053
EQQVKEAEMAYVKAVSD [SMC4] | 3.21 ± 0.082 | 2.89 ± 0.093 | 2.83 ± 0.08 | 2.83 ± 0.069
SELLARDIFQEDEENSD [RGR1] | 3.48 ± 0.12 | 3.37 ± 0.12 | 3.02 ± 0.14 | 3.27 ± 0.17
RTLTAVHDKVLEDMVFP [RPS7B] | 3 ± 0.081 | 3.09 ± 0.069 | 2.81 ± 0.068 | 3.27 ± 0.074
SEMLAKYSDILLKKATK [CDC53] | 2.62 ± 0.078 | 2.44 ± 0.12 |  | 2.47 ± 0.17
VPRAALEERFDPKSPTK [YMR129W/POM152] | 3.15 ± 0.062 | 3.09 ± 0.064 | 3.01 ± 0.043 | 3.1 ± 0.047
